Test results published in paper PMC7954794, “Protein context shapes the specificity of SH3 domain-mediated interactions in vivo” (Nature Communications, 2021).

System: PPIs identified as affected by the SH3 domain deletions
Assay: Liquid DHFR-PCA low-throughput validation of PPIs affected by SH3 deletion (Fig. S1D-E)
Format: cell-based, Saccharomyces cerevisiae
Conditions: label = prey, liquid DHFR-PCA, prey _1 = lost, _2 = gained in screen
Summary of the method: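 Growth at 30 °C was tracked by OD each 15 min over 72 h in agar-free PCA selection medium, starting at 0.1 OD. Cells were diploids selected after mating, first cultured 48 h with NAT and HPH in synthetic complete MSG medium, pH 6.0.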

B1: YGL060W_1 (protein, UniProt P53169 1-641, looked up)
YAP1-binding protein 2: MYNEQVNSGKSIKEKERYLDALLKILKDNPVTLKEIGWDLPKGLLQFFSRKNINVNIHLVFSPLVSSVMECFNELAINGNPKECLLTACELVSTLHIVLTETGDSDEENEDLNDSNRNDASNITDELSVITPEIGHYMAKNTVEFIPNLKIYVLFEFMSLLLKRVDTLYPSKFLAMVTSAIIKYVTTNVQAMDDPHFILRIVYNFCTNYSPAQPSASLTDGISTNDLEKIHDDESALQKKLLANLSVFVISNCLKNHPGNIDKIYFKTLMHKKTDENEIDASVLQICHQYYEYVTSLDVHMKELLEKCLVESRSIYNSLLMNPAASTPEFKEEINQLVYEVSYAYQIKKLADEKNLELDQYGVVILSAIHYSKNGTHLLPQIDIQSAIYLYLRCTTASLFSEIYENKFLESSVRYWLWVSTTETSTEKIKCALQELPGHITTAFLQMLLMKTCNESNNDTKLTEITLLRRLLYLMPESTSFTFIFETLLHCPYITAKIAVLDILRDMMIRSPEAANRDETVGLIEQQNPGNTANSVPIMPTLPPRPYITINEDRMASIHSIALICFSAAKQKKRTQGDLLLVLTYMKFFVSLRNKWDLGLLTLINKEISESFQGEGEPELAFINISNNTLGEYIEEMNIRS
Ratio (Deletedscore / WTscore) (bait RVS167): 0.4505

B2: YGL153W_2 (protein, UniProt P53112 2-341, looked up)
Peroxisomal membrane protein …: SDVVSKDRKALFDSAVSFLKDESIKDAPLLKKIEFLKSKGLTEKEIEIAMKEPKKDGIVGDEVSKKIGSTENRASQDMYLYEAMPPTLPHRDWKDYFVMATATAGLLYGAYEVTRRYVIPNILPEAKSKLEGDKKEIDDQFSKIDTVLNAIEAEQAEFRKKESETLKELSDTIAELKQALVQTTRSREKIEDEFRIVKLEVVNMQNTIDKFVSDNDGMQELNNIQKEMESLKSLMNNRMESGNAQDNRLFSISPNGIPGIDTIPSASEILAKMGMQEESDKEKENGSDANKDDNAVPAWKKAREQTIDSNASIPEWQKNTAANEISVPDWQNGQVEDSIP
Ratio (Deletedscore / WTscore) (bait BEM1-1): 1.295

B3: YDL160C_1 (protein, UniProt P39517 1-506, looked up)
ATP-dependent RNA helicase …: MGSINNNFNTNNNSNTDLDRDWKTALNIPKKDTRPQTDDVLNTKGNTFEDFYLKRELLMGIFEAGFEKPSPIQEEAIPVAITGRDILARAKNGTGKTAAFVIPTLEKVKPKLNKIQALIMVPTRELALQTSQVVRTLGKHCGISCMVTTGGTNLRDDILRLNETVHILVGTPGRVLDLASRKVADLSDCSLFIMDEADKMLSRDFKTIIEQILSFLPPTHQSLLFSATFPLTVKEFMVKHLHKPYEINLMEELTLKGITQYYAFVEERQKLHCLNTLFSKLQINQAIIFCNSTNRVELLAKKITDLGYSCYYSHARMKQQERNKVFHEFRQGKVRTLVCSDLLTRGIDIQAVNVVINFDFPKTAETYLHRIGRSGRFGHLGLAINLINWNDRFNLYKIEQELGTEIAAIPATIDKSLYVAENDETVPVPFPIEQQSYHQQAIPQQQLPSQQQFAIPPQQHHPQFMVPPSHQQQQAYPPPQMPSQQGYPPQQEHFMAMPPGQSQPQY
Ratio (Deletedscore / WTscore) (bait RVS167): 0.8286

B4: YJL095W_1 (protein, UniProt Q01389 1-1478, looked up)
Serine/threonine-protein …: MPFLRKIAGTAHTHSRSDSNSSVKFGHQPTSSVASTKSSSKSPRATSRKSIYDDIRSQFPNLTPNSTSSQFYESTPVIEQSFNWTTDDHISAGTLENPTSFTNSSYKNDNGPSSLSDSRKSSGGNSVNSLSFDKLILSWDPTDPDEWTMHRVTSWFKFHDFPESWILFFKKHQLFGHRFIKLLAYDNFAVYEKYLPQTKTASYTRFQQLLKKTMTKNVTNSHIRQKSASKLKSSRSSSESIKSKLKNSKSQEDISNSRSTSESALSPTKSGPSKTDEKNFLHSTSTHQKTKSASSLYRRSFISLRGSSSSNASSAKSPSNIKLSIPARPHSIIESNSTLTKSASPPASPSYPSIFRRHHKSSSSESSLLNSLFGSGIGEEAPTKPNPQGHSLSSENLAKGKSKHYETNVSSPLKQSSLPTSDDKGNLWNKFKRKSQIGVPSPNTVAYVTSQETPSLKSNSSTATLTVQTADVNIPSPSSSPPPIPKTANRSLEVISTEDTPKISSTTASFKETYPDCINPDKTVPVPVNNQKYSVKNFLLDQKFYPLKKTGLNDSENKYILVTKDNVSFVPLNLKSVAKLSSFKESALTKLGINHKNVTFHMTDFDCDIGAAIPDDTLEFLKKSLFLNTSGKIYIKDQMKLQQKPKPAPLTSENNVPLKSVKSKSSMRSGTSSLIASTDDVSIVTSSSDITSFDEHASGSGRRYPQTPSYYYDRVSNTNPTEELNYWNIKEVLSHEENAPKMVFKTSPKLELNLPDKGSKLNIPTPITENESKSSFQVLRKDEGTEIDFNHRRESPYTKPELAPKREAPKPPANTSPQRTLSTSKQNKPIRLVRASTKISRSKRSKPLPPQLLSSPIEASSSSPDSLTSSYTPASTHVLIPQPYKGANDVMRRLKTDQDSTSTSPSLKMKQKVNRSNSTVSTSNSIFYSPSPLLKRGNSKRVVSSTSAADIFEENDITFADAPPMFDSDDSDDDSSSSDDIIWSKKKTAPETNNENKKDEKSDNSSTHSDEIFYDSQTQDKMERKMTFRPSPEVVYQNLEKFFPRANLDKPITEGIASPTSPKSLDSLLSPKNVASSRTEPSTPSRPVPPDSSYEFIQDGLNGKNKPLNQAKTPKRTKTIRTIAHEASLARKNSVKLKRQNTKMWGTRMVEVTENHMVSINKAKNSKGEYKEFAWMKGEMIGKGSFGAVYLCLNVTTGEMMAVKQVEVPKYSSQNEAILSTVEALRSEVSTLKDLDHLNIVQYLGFENKNNIYSLFLEYVAGGSVGSLIRMYGRFDEPLIKHLTTQVLKGLAYLHSKGILHRDMKADNLLLDQDGICKISDFGISRKSKDIYSNSDMTMRGTVFWMAPEMVDTKQGYSAKVDIWSLGCIVLEMFAGKRPWSNLEVVAAMFKIGKSKSAPPIPEDTLPLISQIGRNFLDACFEINPEKRPTANELLSHPFSEVNETFNFKSTRLAKFIKSNDKLNSSKLRITSQENKTE
Ratio (Deletedscore / WTscore) (bait NBP2): 0.6492

B5: YDR329C_2 (protein, UniProt P28795 1-441, looked up)
Peroxisomal biogenesis factor …: MAPNQRSRSLLQRHRGKVLISLTGIAALFTTGSVVVFFVKRWLYKQQLRITEQHFIKEQIKRRFEQTQEDSLYTIYELLPVWRMVLNENDLNLDSIVTQLKDQKNQLTRAKSSESRESSPLKSKAELWNELELKSLIKLVTVTYTVSSLILLTRLQLNILTRNEYLDSAIKLTMQQENCNKLQNRFYNWVTSWWSDPEDKADDAMVMAAKKSKKEGQEVYINEQAFLSLSWWILNKGWLSYNEIITNQIEIEFDGIHPRDTLTLEEFSSRLTNIFRNTNSQIFQQNNNNLTSILLPKDSSGQEFLLSQTLDADALTSFHSNTLVFNQLVNELTQCIESTATSIVLESLINESFHFIMNKVGIKTIAKKKPGQEDQQQYQMAVFAMSMKDCCQEMLQTTAGSSHSGSVNEYLATLDSVQPLDDLSASVYSNFGVSSSFSFKP
Ratio (Deletedscore / WTscore) (bait BEM1-1): 1.085

B6: YML035C_1 (protein, UniProt P15274 1-810, looked up)
AMP deaminase: MDNQATQRLNDLSLEPAPSHDEQDGSGLVIDIDQRKIGDEQAGVVVDDETPPLEQQDSHESLAADSRNANFSYHENQQLLENGTKQLALDEHDSHSAILEQPSHSTNCSSSNIAAMNKGHDSADHASQNSGGKPRTLSASAQHILPETLKSFAGAPVVNKQVRTSASYKMGMLADDASQQFLDDPSSELIDLYSKVAECRNLRAKYQTISVQNDDQNPKNKPGWVVYPPPPKPSYNSDTKTVVPVTNKPDAEVFDFTKCEIPGEDPDWEFTLNDDDSYVVHRSGKTDELIAQIPTLRDYYLDLEKMISISSDGPAKSFAYRRLQYLEARWNLYYLLNEYQETSVSKRNPHRDFYNVRKVDTHVHHSACMNQKHLLRFIKHKLRHSKDEKVIFRDGKLLTLDEVFRSLHLTGYDLSIDTLDMHAHKDTFHRFDKFNLKYNPIGESRLREIFLKTNNYIKGTYLADITKQVIFDLENSKYQNCEYRISVYGRSLDEWDKLASWVIDNKVISHNVRWLVQIPRLYDIYKKTGIVQSFQDICKNLFQPLFEVTKNPQSHPKLHVFLQRVIGFDSVDDESKVDRRFHRKYPKPSLWEAPQNPPYSYYLYYLYSNVASLNQWRAKRGFNTLVLRPHCGEAGDPEHLVSAYLLAHGISHGILLRKVPFVQYLYYLDQVGIAMSPLSNNALFLTYDKNPFPRYFKRGLNVSLSTDDPLQFSYTREPLIEEYSVAAQIYKLSNVDMCELARNSVLQSGWEAQIKKHWIGKDFDKSGVEGNDVVRTNVPDIRINYRYDTLSTELELVNHFANFKRTIEEK
Ratio (Deletedscore / WTscore) (bait): 0.7244

B7: YKR082W_1 (protein, UniProt P36161 2-1157, looked up)
Nucleoporin NUP133: SEKKVHLRLRKELSVPIAVVENESLAQLSYEEESQASLMDISMEQQQLRLHSHFDNSKVFTENNRYIVKTLQTDYSSGFSNDDELNGYIDMQIGYGLVNDHKKVYIWNIHSTQKDTPYITVPFRSDDNDEIAVAPRCILTFPATMDESPLALNPNDQDETGGLIIIKGSKAIYYEDINSINNLNFKLSEKFSHELELPINSSGGEKCDLMLNCEPAGIVLSTNMGRIFFITIRNSMGKPQLKLGKLLNKPFKLGIWSKIFNTNSSVVSLRNGPILGKGTRLVYITTNKGIFQTWQLSATNSHPTKLIDVNIYEAILESLQDLYPFAHGTLKIWDSHPLQDESSQLFLSSIYDSSCNETYYILSTIIFDSSSNSFTIFSTYRLNTFMESITDTKFKPKIFIPQMENANDTNEVTSILVMFPNAVVITQVNSKLDSSYSMRRKWEDIVSLRNDIDIIGSGYDSKSLYVLTKQMGVLQFFVKENEETNSKPEVGFVKSHVDQAVYFSKINANPIDFNLPPEISLDQESIEHDLKLTSEEIFHSNGKYIPPMLNTLGQHLSVRKEFFQNFLTFVAKNFNYKISPELKLDLIEKFEILNCCIKFNSIIRQSDVLNDIWEKTLSNYNLTQNEHLTTKTVVINSPDVFPVIFKQFLNHVVFVLFPSQNQNFKLNVTNLINLCFYDGILEEGEKTIRYELLELDPMEVDTSKLPWFINFDYLNCINQCFFDFTFACEEEGSLDSYKEGLLKIVKILYYQFNQFKIWINTQPVKSVNANDNFININNLYDDNHLDWNHVLCKVNLKEQCIQIAEFYKDLSGLVQTLQTLDQNDSTTVSLYETFFNEFPKEFSFTLFEYLIKHKKLNDLIFRFPQQHDVLIQFFQESAPKYGHVAWIQQILDGSYADAMNTLKNITVDDSKKGESLSECELHLNVAKLSSLLVEKDNLDINTLRKIQYNLDTIDAEKNISNKLKKGEVQICKRFKNGSIREVFNILVEELKSTTVVNLSDLVELYSMLDDEESLFIPLRLLSVDGNLLNFEVKKFLNALVWRRIVLLNASNEGDKLLQHIVKRVFDEELPKNNDFPLPSVDLLCDKSLLTPEYISETYGRFPIDQNAIREEIYEEISQVETLNSDNSLEIKLHSTIGSVAKEKNYTINYETNTVEY
Ratio (Deletedscore / WTscore) (bait RVS167): 0.6329
